In test [1] the target is IS (1): peptide ARTK(me3)QTAR conjugated to a 125 bp DNA strand (H3K4me3-IS). Nature of the test: ChIP qPCR primer set H3K4me3_qPCR_short; enrichment of H3K4me3-IS normalised to Control-IS (H3_qPCR_short). On the technique in general: In qPCR the cycle at which signal appears reflects the starting amount.
In test [2] the target is IS (2): peptide ARTKQTAR without the methylation modification conjugated to a 125 bp DNA strand (Control-IS). Nature of the test: ChIP qPCR primer set H3_qPCR_short; ratio of H3K4me3-antibody ChIP over H3K36me3-antibody ChIP.
In test [3] the target is IS (1): peptide ARTK(me3)QTAR conjugated to a 125 bp DNA strand (H3K4me3-IS). Nature of the test: ChIP of spiked conjugate, qPCR primer set H3K4me3_qPCR, well C2.
For test [4] the target is unchanged. Nature of the test: ChIP qPCR primer set H3K4me3_qPCR_long; enrichment of H3K4me3-IS normalised to Control-IS (H3_qPCR_long).
Test [5] shares this target. In words: ChIP qPCR primer set H3K4me3_qPCR; enrichment of H3K4me3-IS normalised to Control-IS (H3_qPCR).
Test [6] deals with IS (2): peptide ARTKQTAR without the methylation modification conjugated to a 125 bp DNA strand (Control-IS). Nature of the test: ChIP of spiked conjugate, qPCR primer set H3_qPCR_short, well I1.
For test [7] the target is unchanged. Nature of the test: ChIP of spiked conjugate, qPCR primer set H3_qPCR, well A1.
Test [8] has the same target. In words: ChIP of spiked conjugate, qPCR primer set H3_qPCR_long, well E1.
Test [9] concerns the target IS (1): peptide ARTK(me3)QTAR conjugated to a 125 bp DNA strand (H3K4me3-IS). In words: ChIP of spiked conjugate, qPCR primer set H3K4me3_qPCR_long, well G1.
For test [10] the target is unchanged. In words: ChIP qPCR primer set H3K4me3_qPCR_short; ratio of H3K4me3-antibody ChIP over H3K36me3-antibody ChIP.
Test [11] has the same target. Nature of the test: ChIP with 10 fg of internal standard spiked after sonication, qPCR.
Test [12] has the same target. In words: ChIP qPCR primer set H3K4me3_qPCR; ratio of H3K4me3-antibody ChIP over H3K36me3-antibody ChIP.
Test [13] shares this target. In words: ChIP of spiked conjugate, qPCR primer set H3K4me3_qPCR_Vshort, well M2.
In test [14] the target is IS (2): peptide ARTKQTAR without the methylation modification conjugated to a 125 bp DNA strand (Control-IS). Nature of the test: ChIP qPCR primer set H3_qPCR_long; ratio of H3K4me3-antibody ChIP over H3K36me3-antibody ChIP.
For test [15] the target is unchanged. Nature of the test: ChIP of spiked conjugate, qPCR primer set H3_qPCR, well A2.
Test [16] addresses IS (1): peptide ARTK(me3)QTAR conjugated to a 125 bp DNA strand (H3K4me3-IS). In words: ChIP with 100 fg of internal standard spiked after sonication, qPCR.
Test [17] has the same target. In words: ChIP of spiked conjugate, qPCR primer set H3K4me3_qPCR_Vshort, well M1.
Test [18] shares this target. Nature of the test: ChIP of spiked conjugate, qPCR primer set H3K4me3_qPCR, well C1.
Test [19] shares this target. In words: ChIP qPCR primer set H3K4me3_qPCR_long; ratio of H3K4me3-antibody ChIP over H3K36me3-antibody ChIP.
The target of test [20] is IS (2): peptide ARTKQTAR without the methylation modification conjugated to a 125 bp DNA strand (Control-IS). Nature of the test: ChIP qPCR primer set H3_qPCR; ratio of H3K4me3-antibody ChIP over H3K36me3-antibody ChIP.
The target of test [21] is IS (1): peptide ARTK(me3)QTAR conjugated to a 125 bp DNA strand (H3K4me3-IS). In words: ChIP of spiked conjugate, qPCR primer set H3K4me3_qPCR_long, well G2.
The target is the same in test [22]. Nature of the test: ChIP of spiked conjugate, qPCR primer set H3K4me3_qPCR_short, well K2.
Test [23] shares this target. Nature of the test: ChIP qPCR primer set H3K4me3_qPCR_Vshort; enrichment of H3K4me3-IS normalised to Control-IS.
The target of test [24] is IS (2): peptide ARTKQTAR without the methylation modification conjugated to a 125 bp DNA strand (Control-IS). In words: ChIP of spiked conjugate, qPCR primer set H3_qPCR_long, well E2.
The target in test [25] is IS (1): peptide ARTK(me3)QTAR conjugated to a 125 bp DNA strand (H3K4me3-IS). In words: ChIP of spiked conjugate, qPCR primer set H3K4me3_qPCR_short, well K1.
For test [26] the target is unchanged. In words: ChIP qPCR primer set H3K4me3_qPCR_Vshort; ratio of H3K4me3-antibody ChIP over H3K36me3-antibody ChIP.
Test [27] concerns the target IS (2): peptide ARTKQTAR without the methylation modification conjugated to a 125 bp DNA strand (Control-IS). In words: ChIP of spiked conjugate, qPCR primer set H3_qPCR_short, well I2.
Test [28] shares this target. In words: ChIP of spiked conjugate, qPCR primer set H3_qPCR, well A3.
In test [29] the target is IS (1): peptide ARTK(me3)QTAR conjugated to a 125 bp DNA strand (H3K4me3-IS). In words: ChIP of spiked conjugate, qPCR primer set H3K4me3_qPCR_short, well K4.
The target is the same in test [30]. Nature of the test: ChIP of spiked conjugate, qPCR primer set H3K4me3_qPCR_short, well K3.
For test [31], the target named is IS (2): peptide ARTKQTAR without the methylation modification conjugated to a 125 bp DNA strand (Control-IS). In words: ChIP of spiked conjugate, qPCR primer set H3_qPCR_short, well I3.
Test [32] has the same target. In words: ChIP of spiked conjugate, qPCR primer set H3_qPCR_long, well E4.
Test [33] addresses IS (1): peptide ARTK(me3)QTAR conjugated to a 125 bp DNA strand (H3K4me3-IS). Nature of the test: ChIP of spiked conjugate, qPCR primer set H3K4me3_qPCR, well C4.
The target is the same in test [34]. In words: ChIP of spiked conjugate, qPCR primer set H3K4me3_qPCR, well C3.
The target is the same in test [35]. Nature of the test: ChIP of spiked conjugate, qPCR primer set H3K4me3_qPCR_Vshort, well M3.
Test [36] has the same target. Nature of the test: ChIP of spiked conjugate, qPCR primer set H3K4me3_qPCR_long, well G4.
For test [37] the target is unchanged. In words: ChIP of spiked conjugate, qPCR primer set H3K4me3_qPCR_long, well G3.
For test [38] the target is unchanged. Nature of the test: ChIP of spiked conjugate, qPCR primer set H3K4me3_qPCR_Vshort, well M4.
The target of test [39] is IS (2): peptide ARTKQTAR without the methylation modification conjugated to a 125 bp DNA strand (Control-IS). Nature of the test: ChIP of spiked conjugate, qPCR primer set H3_qPCR_long, well E3.
Test [40] has the same target. Nature of the test: ChIP of spiked conjugate, qPCR primer set H3_qPCR_short, well I4.
Test [41] has the same target. Nature of the test: ChIP of spiked conjugate, qPCR primer set H3_qPCR, well A4.

The source of these data is patent US20130217027A1.

Regarding “antibody specific for H3K4me3 (Millipore, catalogue Number: 07-473, rabbit, polyclonal)”, the (K4/K36)^K4-ChIP/(K4/K36)^K36-ChIP stood at 52.7 fold in test [1], 43.9 fold in [4], 26.6 fold in test [5] and 86.8 fold in test [23]. The K4/K36 in [2] was 0.871 fold; in [10], 45.9 fold; in [12] it was 30.9 fold; in test [14], 0.862 fold; in [19] it was 37.8 fold; in test [20] it was 1.16 fold. Further, the K4/K36 in test [26] worked out at 75.6 fold. Further, the Cp (qPCR) in [3] was 15.2; in test [6], 19.5; in test [7] it was 20.4; in [8] it was 20.4; in test [9], 15.2; in test [13], 14.4. The Cp (qPCR) in [15] is 20.4; in [17] it was 14; in [18], 14.7; in [21] it was 15.6; in test [22], 14.9; in test [24], 20.5. Moreover, the results for the Cp (qPCR) in test [25] and in [27] were 14.2 and 19.9, respectively. Also, the results for the qPCR cycle of enrichment in test [11] and in [16] were 30 cycle and 26 cycle, respectively.

In the case of “non-relevant control antibody that should recognize H3K36me3 (Abcam, catalogue Number: ab9050, rabbit, polyclonal)”, the Cp (qPCR) in test [28] is 20.3; in [29], 20.2; in test [30] it was 19.9; in test [31], 19.1; in test [32] it was 19.9; in test [33] it was 19.9. In addition, the Cp (qPCR) is 19.9 in [34]; 20.1 in [35]; 20.9 in [36]; 20.4 in [37]; 20.9 in test [38]; 20.6 in test [39]. Besides, the figures for the Cp (qPCR) in test [40] and in test [41] were 19.9 and 21, respectively.
